Laboratory results taken from US20200231684A1 (published 2020).

T1: human IL-36R on cells (human, UniProt Q9HB29 20-575)
T1 sequence (looked up): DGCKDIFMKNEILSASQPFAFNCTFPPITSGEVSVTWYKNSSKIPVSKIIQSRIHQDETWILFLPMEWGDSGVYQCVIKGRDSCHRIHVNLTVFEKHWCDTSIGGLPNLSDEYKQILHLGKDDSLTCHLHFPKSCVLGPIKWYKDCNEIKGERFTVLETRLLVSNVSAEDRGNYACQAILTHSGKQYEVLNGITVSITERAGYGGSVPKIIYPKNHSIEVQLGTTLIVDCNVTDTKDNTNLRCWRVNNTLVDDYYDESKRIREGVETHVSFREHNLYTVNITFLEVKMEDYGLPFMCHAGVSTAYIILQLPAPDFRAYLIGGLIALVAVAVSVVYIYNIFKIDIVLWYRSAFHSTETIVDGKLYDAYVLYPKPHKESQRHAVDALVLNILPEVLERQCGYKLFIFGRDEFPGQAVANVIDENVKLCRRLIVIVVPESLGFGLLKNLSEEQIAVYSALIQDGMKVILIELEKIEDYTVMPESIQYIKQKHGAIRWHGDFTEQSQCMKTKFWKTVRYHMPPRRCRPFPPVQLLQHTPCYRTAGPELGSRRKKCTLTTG

T2: mouse IL-36R (mouse, UniProt Q9ERS7 22-338)
T2 sequence (looked up): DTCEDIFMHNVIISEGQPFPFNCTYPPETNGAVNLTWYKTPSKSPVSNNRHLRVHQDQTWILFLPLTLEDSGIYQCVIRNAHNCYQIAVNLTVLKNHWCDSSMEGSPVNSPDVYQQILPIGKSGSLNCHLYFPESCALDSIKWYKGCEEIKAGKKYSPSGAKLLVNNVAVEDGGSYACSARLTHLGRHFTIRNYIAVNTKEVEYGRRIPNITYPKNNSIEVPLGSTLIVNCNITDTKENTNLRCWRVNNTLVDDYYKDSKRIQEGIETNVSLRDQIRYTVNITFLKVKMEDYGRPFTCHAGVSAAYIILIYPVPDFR

T3: human IL-1R1 (human, UniProt P14778 18-336, limits assumed)
T3 construct: also called IL-1RI
T3 sequence (looked up): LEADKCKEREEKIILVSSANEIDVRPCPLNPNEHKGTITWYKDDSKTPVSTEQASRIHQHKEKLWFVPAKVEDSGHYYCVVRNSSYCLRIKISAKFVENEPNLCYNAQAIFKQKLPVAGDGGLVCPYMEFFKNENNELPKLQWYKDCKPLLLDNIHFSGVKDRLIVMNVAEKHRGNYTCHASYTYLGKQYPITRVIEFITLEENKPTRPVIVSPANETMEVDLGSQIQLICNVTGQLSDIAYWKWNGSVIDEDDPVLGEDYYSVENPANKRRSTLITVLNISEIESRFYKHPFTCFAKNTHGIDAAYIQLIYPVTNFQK

T4: recombinant human IL-36R (ECD) (human, UniProt Q9HB29 20-332)
T4 construct: range 20-332; also called IL-1RL2; IL-1Rrp2
T4 sequence (looked up): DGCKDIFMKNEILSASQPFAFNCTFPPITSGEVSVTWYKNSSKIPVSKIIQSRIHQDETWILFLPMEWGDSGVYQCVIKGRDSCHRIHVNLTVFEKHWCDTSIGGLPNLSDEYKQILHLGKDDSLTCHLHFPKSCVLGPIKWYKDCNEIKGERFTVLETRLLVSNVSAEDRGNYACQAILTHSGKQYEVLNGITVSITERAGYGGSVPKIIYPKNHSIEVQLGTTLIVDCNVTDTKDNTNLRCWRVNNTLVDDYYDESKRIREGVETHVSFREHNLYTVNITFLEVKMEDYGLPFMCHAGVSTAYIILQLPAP


Tests used:
human IL-36R on cells [1] = target: T1, human IL-36R on cells; assay: cell-based or functional assay
[2] = target: cynomolgus IL-36R on BaF/3 cells (cynomolgus, UniProt A0A2K5WSK9 20-558); assay: cell-based or functional assay
Chain of cynomolgus IL-36R on BaF/3 cells (A0A2K5WSK9 entry or part of it): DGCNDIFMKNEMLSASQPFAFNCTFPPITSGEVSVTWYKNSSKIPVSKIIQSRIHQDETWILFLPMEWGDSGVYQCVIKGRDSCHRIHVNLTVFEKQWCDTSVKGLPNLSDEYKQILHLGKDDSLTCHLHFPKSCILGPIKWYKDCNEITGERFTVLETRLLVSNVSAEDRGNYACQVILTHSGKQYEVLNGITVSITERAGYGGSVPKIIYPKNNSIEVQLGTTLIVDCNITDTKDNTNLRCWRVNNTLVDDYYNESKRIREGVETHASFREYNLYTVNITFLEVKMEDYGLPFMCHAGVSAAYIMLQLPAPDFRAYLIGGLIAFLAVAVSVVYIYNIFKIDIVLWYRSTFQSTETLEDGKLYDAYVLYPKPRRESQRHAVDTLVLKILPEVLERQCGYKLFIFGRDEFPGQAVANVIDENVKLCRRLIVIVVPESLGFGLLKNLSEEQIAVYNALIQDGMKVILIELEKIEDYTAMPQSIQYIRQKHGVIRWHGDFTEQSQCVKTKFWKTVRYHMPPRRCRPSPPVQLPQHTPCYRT

human IL-36R on cells [3] = target: T1, human IL-36R on cells; assay: flow cytometry, HEK293 cells transfected with full-length human IL-36R
Description: HEK293 cells transfected with full-length human IL-36R or NCI/ADR-RES cells were passaged for 24 hours prior to staining. Cells were removed from flasks by rinsing with 10 ml of 5 mM EDTA in PBS, and then incubated at 37° C. for 10 min with an additional 10 ml of 5 mM EDTA and 2.5 ml of Accumax to declump/disperse cells. Antibodies were then diluted to specified concentrations in PBS+2% BSA, and cells incubated for 20 min at room temperature. Excess antibody was then washed by adding 200 μl of PBS and then centrifuged. Secondary reagent was then added at 50 μl per well and cells are incubated for 15 min at room temperature and then washed as above. Cells were resuspended in 200 μl PBS and analyzed by flow cytometry.

mouse IL-36R = target: T2, mouse IL-36R; assay: BLI (Fortebio Octet), antibody injected over antigen surface
Description: (§1) B) Molecular selectivity over mouse IL-36R and human IL-1R1 The mouse and chimeric anti-IL-36R antibodies were also injected over either a mouse IL-36R or a human IL-1R1 surface at a concentration of 100 nM. The binding signal to mouse IL-36R and to human IL-1R1 for these antibodies measured using the Fortebio Octet (Fortebio, Menlo Park, Calif.) is zero, which indicates these antibodies selectively bind to human IL-36R.

human IL-1R1 = target: T3, human IL-1R1; assay: as above
Description: as §1

[4] = target: T4, recombinant human IL-36R (ECD); assay: SPR (ProteOn), single IL-36R surface coat concentration
Description: A) Kinetics and binding affinities of anti-IL-36R antibodies binding to recombinant human IL-36R were measured using the Proteon (Bio-Rad, Hercules, Calif.) using material generated from hybridoma following single column purification. […] Binding of the chimeric anti-IL36R IgGs is equivalent to the respective mouse leads.

human IL-36R on cells [5] = target: T1, human IL-36R on cells; assay: cell-based or functional assay; remark: listed apart in the source
[6] = target: T4, recombinant human IL-36R (ECD); assay: SPR (ProteOn), recombinant human IL-36R at 7 surface densities, global fit
Description: A) Kinetics and binding affinities of anti-IL-36R antibodies binding to recombinant human IL-36R were measured using the Proteon (Bio-Rad, Hercules, Calif.) using material generated from hybridoma following single column purification. […] The binding affinities of the mouse antibodies to human IL-36R run at 7 different surface densities (globally fit) is shown in Table 1. Binding of the chimeric anti-IL36R IgGs is equivalent to the respective mouse leads.

| IC90, GM-CSF release, NCI/ADR-RES cells, trun-IL-36a (human IL-36R on cells [1]) [pM] | IC90, GM-CSF release, NCI/ADR-RES cells, trun-IL-36b (human IL-36R on cells [1]) [pM] | IC90, GM-CSF release, NCI/ADR-RES cells, trun-IL-36g (human IL-36R on cells [1]) [pM] | IC90, IL-6 release, NCI/ADR-RES cells, trun-IL-36a (human IL-36R on cells [1]) [pM] | IC90, IL-6 release, NCI/ADR-RES cells, trun-IL-36b (human IL-36R on cells [1]) [pM] | IC90, IL-6 release, NCI/ADR-RES cells, trun-IL-36g (human IL-36R on cells [1]) [pM] | IC90, IL-8 release, NCI/ADR-RES cells, trun-IL-36a (human IL-36R on cells [1]) [pM] | IC90, IL-8 release, NCI/ADR-RES cells, trun-IL-36b (human IL-36R on cells [1]) [pM] | IC90, IL-8 release, NCI/ADR-RES cells, trun-IL-36g (human IL-36R on cells [1]) [pM] | IC90, pNFκB, NCI/ADR-RES cells, trun-IL-36a (human IL-36R on cells [1]) [nM] | IC90, pNFκB, NCI/ADR-RES cells, trun-IL-36b (human IL-36R on cells [1]) [nM] | IC90, pNFκB, NCI/ADR-RES cells, trun-IL-36g (human IL-36R on cells [1]) [nM] | IC90, pNFκB, BaF/3 cynomolgus IL-36R cells, trun-IL-36a [2] [nM] | IC90, pNFκB, BaF/3 cynomolgus IL-36R cells, trun-IL-36b [2] [nM] | IC90, pNFκB, BaF/3 cynomolgus IL-36R cells, trun-IL-36g [2] [nM] | EC50 (human IL-36R on cells [3]) [pM] | binding result (mouse IL-36R) | binding result (human IL-1R1) | Kd [4] [pM] | IC90, IL-8 release, human primary keratinocytes (NHK), trun-IL-36a (human IL-36R on cells [5]) [pM] | Binder | further results |
| --- | --- | --- | --- | --- | --- | --- | --- | --- | --- | --- | --- | --- | --- | --- | --- | --- | --- | --- | --- | --- | --- |
| 5900 | 1700 | 1400 | 19000 | 5100 | 2200 | 3200 | 800 | 900 | 2.8 | 3 | 1.5 | 0.5 | 0.7 | 0.8 | 746 | no binding (tested: 100 nM) | no binding (tested: 100 nM) | < 100 | 17800 | antibody 73F6 (antibody, V domains shown, Mouse monoclonal from hybridoma; also called 73F6F8; Mouse 73F6) VH: QVQLKESGPGLVAPSQSLSITCTVSGFSLTNYAVHWVRQFPGKGLEWLGVIWSDGSTDYNAPFKSRLSINKDNSKSQVFFKMNSLQTDDTAIYYCARKGGYSGSWFAYWGQGTLVTVSA VL: DIVMTQSQKFLSTSVGVRVSVTCKASQDVGTNVLWYQQKIGQSPKALIYSASYRHSGVPDRFTGSGSGTDFTLIITNVQSEDLAEYFCQQYSRYPLTFGPGTKLELK | IC90, IL-8 release, human primary keratinocytes (NHK), trun-IL-36b (human IL-36R on cells [5]): 26000 pM; IC90, IL-8 release, human primary keratinocytes (NHK), trun-IL-36g (human IL-36R on cells [5]): 2100 pM; IC90, pNFκB, human primary keratinocytes (NHK), trun-IL-36a (human IL-36R on cells [5]): 8.2 nM; IC90, pNFκB, human primary keratinocytes (NHK), trun-IL-36b (human IL-36R on cells [5]): 5.2 nM; IC90, pNFκB, human primary keratinocytes (NHK), trun-IL-36g (human IL-36R on cells [5]): 1.3 nM; Kd [6]: 25 pM |
| 800 | 300 | 400 | 800 | 300 | 200 | 700 | 200 | 300 | 1.7 | 1.4 | 1.2 | 2.4 | 3.5 | 5.1 | 302 | no binding (tested: 100 nM) | no binding (tested: 100 nM) | < 100 | 700 | antibody 81B4 (antibody, V domains shown, Mouse monoclonal from hybridoma; also called 81B4E11; Mouse 81B4) VH: QVQLQQPGADFVRPGASMRLSCKASGYSFTSSWIHWVKQRPGQGLEWIGEINPGNVRTNYNENFRNKATLTVDKSSTTAYMQLRSLTSADSAVYYCTVVFYGEPYFPYWGQGTLVTVSA VL: QIVLTQSPAIMSASLGERVTMTCTASSSVSSSYFHWYQQKPGSSPKLWIYRTSNLASGVPGRFSGSGSGTSYSLTISSMEAEDAATYYCHQFHRSPLTFGAGTKLELK | IC90, IL-8 release, human primary keratinocytes (NHK), trun-IL-36b (human IL-36R on cells [5]): 1200 pM; IC90, IL-8 release, human primary keratinocytes (NHK), trun-IL-36g (human IL-36R on cells [5]): 500 pM; IC90, pNFκB, human primary keratinocytes (NHK), trun-IL-36a (human IL-36R on cells [5]): 1.3 nM; IC90, pNFκB, human primary keratinocytes (NHK), trun-IL-36b (human IL-36R on cells [5]): 1.1 nM; IC90, pNFκB, human primary keratinocytes (NHK), trun-IL-36g (human IL-36R on cells [5]): 0.5 nM; Kd [6]: 24 pM |
